Data set [1] has as its target lysozyme from egg white (chicken, UniProt P00698 19-147). Description: pull-down from egg white on aptamer-functionalized magnetic nanoparticles, SDS-PAGE; 113 +/- 4.2 mg/g from egg white; Adsorption optimum: 4.0 mg/mL lysozyme, 60 min, pH 9.0, 37 C, 0 M NaCl; egg white: mixed 1:1 with 20 mM PBS pH 7.2-8.0, 10 mg NPs per mL, 37 C, 60 min. The note with it: protein: native.

Data set [2] addresses lysozyme (chicken (Gallus gallus)?, UniProt P00698 19-147). The data set can be described thus: pull-down on aptamer-functionalized magnetic nanoparticles (adsorption, A280); capacity 460 +/- 3.4 mg/g at pH 9.0, 37 C, 0 M NaCl; bare Fe3O4 218.39 and NH2-Fe3O4 211.35 mg/g, so part is non-aptamer adsorption; Adsorption optimum: 4.0 mg/mL lysozyme, 60 min, pH 9.0, 37 C, 0 M NaCl; egg white: mixed 1:1 with 20 mM PBS pH 7.2-8.0, 10 mg NPs per mL, 37 C, 60 min. As to conditions: protein: commercial.

The source of these data is PMC6406557, “Lysozyme Aptamer-Functionalized Magnetic Nanoparticles for the Purification of Lysozyme from Chicken Egg White”.

Sequence of lysozyme from egg white (P00698 19-147): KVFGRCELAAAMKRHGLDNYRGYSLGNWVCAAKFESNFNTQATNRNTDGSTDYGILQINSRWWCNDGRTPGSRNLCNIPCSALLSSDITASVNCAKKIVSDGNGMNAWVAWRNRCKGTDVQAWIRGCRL
Sequence of lysozyme (P00698 19-147): as above

As to TTTTTTATCAGGGCTAAAGAGTGC (ssDNA, 5'-aldehyde, coupled as imine to NH2-Fe3O4 nanoparticles) [lysozyme aptamer], the binding result in data set [1] and in data set [2] was “binds” each time.
